Assay results as given in the supplement of paper PMC9112550, “Optimization of the antimicrobial peptide Bac7 by deep mutational scanning” (BMC Biology, 2022).

These sequences were tested on Escherichia coli TOP10 (assay: shrunken log2 fold change of peptide-encoding DNA abundance (4.5 h post-induction vs induction); higher = less antimicrobial activity (less host growth inhibition)). Settings: time post-induction: 4.5 h; library: site-saturation at positions 5, 18, 19, 20.
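Further: peptides expressed intracellularly from a pBAD plasmid library in pooled LB shake-flask culture, induced with 0.3% L-arabinose, DNA abundance read by NGS, three biological replicates, DESeq2 with apeglm shrinkage.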

Sequence | shrunken log2 fold change
RRIRRRPPRLPRPRPRPMIEPRP | 0.177
RRIRTRPPRLPRPRPRPDLIPRP | -0.0343
RRIRPRPPRLPRPRPRPPKLPRP | 0.172
RRIRNRPPRLPRPRPRPPTTPRP | 0.19
RRIRVRPPRLPRPRPRPNGTPRP | -0.356
RRIRQRPPRLPRPRPRPTINPRP | -0.362
RRIRCRPPRLPRPRPRPMFIPRP | -1.16
RRIRVRPPRLPRPRPRPAQYPRP | -0.0437
RRIRTRPPRLPRPRPRPSFHPRP | -0.772
RRIRCRPPRLPRPRPRPHIDPRP | -0.42
RRIRPRPPRLPRPRPRPLKFPRP | -0.368
RRIRNRPPRLPRPRPRPPQLPRP | 0.131
RRIRFRPPRLPRPRPRPYEPPRP | -0.204
RRIRKRPPRLPRPRPRPMESPRP | 0.0143
RRIRRRPPRLPRPRPRPNKLPRP | -0.138
RRIRLRPPRLPRPRPRPVCWPRP | 0.462
RRIRLRPPRLPRPRPRPHNEPRP | -0.497
RRIRTRPPRLPRPRPRPSYLPRP | -0.416
RRIRFRPPRLPRPRPRPPKTPRP | 0.0214
RRIRFRPPRLPRPRPRPIADPRP | -0.0956
RRIRYRPPRLPRPRPRPFFCPRP | -0.644
RRIRRRPPRLPRPRPRPTQAPRP | -0.0717
RRIRLRPPRLPRPRPRPCVPPRP | -0.208
RRIRTRPPRLPRPRPRPALWPRP | 0.213
RRIRPRPPRLPRPRPRPHTPPRP | -0.0561

Sequence | shrunken log2 fold change
RRIRARPPRLPRPRPRPHISPRP | -0.278
RRIRQRPPRLPRPRPRPFEKPRP | -0.0519
RRIRQRPPRLPRPRPRPDGHPRP | -0.0936
RRIRLRPPRLPRPRPRPMLWPRP | 0.00318
RRIRWRPPRLPRPRPRPTGTPRP | 0.288
RRIRSRPPRLPRPRPRPKLTPRP | -0.06
RRIRHRPPRLPRPRPRPESVPRP | 0.0222
RRIRHRPPRLPRPRPRPVSGPRP | -0.188
RRIRNRPPRLPRPRPRPKCLPRP | 0.0771
RRIRPRPPRLPRPRPRPWVIPRP | 0.0892
RRIRMRPPRLPRPRPRPGMEPRP | 0.183
RRIRLRPPRLPRPRPRPPHWPRP | 0.38
RRIRYRPPRLPRPRPRPNTSPRP | -0.423
RRIRVRPPRLPRPRPRPNEEPRP | -0.00544
RRIRVRPPRLPRPRPRPAGVPRP | 0.283
RRIRRRPPRLPRPRPRPLNTPRP | -0.244
RRIRERPPRLPRPRPRPDLGPRP | -0.0853
RRIRGRPPRLPRPRPRPRTWPRP | 0.317
RRIRHRPPRLPRPRPRPDDAPRP | 0.0602
RRIRLRPPRLPRPRPRPFMSPRP | -1.39
RRIRERPPRLPRPRPRPKMEPRP | -0.0415
RRIRERPPRLPRPRPRPTVNPRP | -0.129
RRIRNRPPRLPRPRPRPRWDPRP | 0.249
RRIRYRPPRLPRPRPRPSCRPRP | -0.6
RRIRSRPPRLPRPRPRPCDKPRP | -0.324

Sequence | shrunken log2 fold change
RRIRVRPPRLPRPRPRPWDWPRP | 0.163
RRIRVRPPRLPRPRPRPHMLPRP | -0.311
RRIRVRPPRLPRPRPRPIPPPRP | -0.2
RRIRARPPRLPRPRPRPEPPPRP | 1.27
RRIRTRPPRLPRPRPRPGQPPRP | 0.161
RRIRVRPPRLPRPRPRPGKGPRP | 0.0187
RRIRERPPRLPRPRPRPPMSPRP | -0.373
RRIRHRPPRLPRPRPRPCGQPRP | 0.015
RRIRNRPPRLPRPRPRPGGVPRP | 0.239
RRIRGRPPRLPRPRPRPQAIPRP | 0.58
RRIRVRPPRLPRPRPRPYDRPRP | -0.00895
RRIRHRPPRLPRPRPRPNPGPRP | 0.111
RRIRQRPPRLPRPRPRPEWRPRP | -0.00139
RRIRVRPPRLPRPRPRPGNFPRP | -0.131
RRIRRRPPRLPRPRPRPRMQPRP | 0.372
RRIRDRPPRLPRPRPRPPHSPRP | 0.279
RRIRGRPPRLPRPRPRPCFKPRP | 0.00363
RRIRLRPPRLPRPRPRPPSVPRP | -0.0845
RRIRTRPPRLPRPRPRPYMFPRP | -0.776
RRIRPRPPRLPRPRPRPNHCPRP | -1.08
RRIRKRPPRLPRPRPRPGATPRP | 1.09
RRIRWRPPRLPRPRPRPYKWPRP | -0.484
RRIRMRPPRLPRPRPRPVVQPRP | -0.0427
RRIRYRPPRLPRPRPRPMTVPRP | -0.0212
RRIRRRPPRLPRPRPRPTLKPRP | 0.379
